Consider seven molecules from paper PMC10461807 (Frontiers in Immunology, 2023).

First the molecules themselves.
B1: anti-CD30 mAb 12B1 (antibody, V domains shown)
VH: EVKLEESGTELVKPGASVKLSCKASGYTFTSYWMHWVKQRPGQGLEWIGNINPTNGGTNYNEKFKSKATLTVDKSSRTAYMQLSSLTSGDSAVYYCARRDFITTSGFAYWGQGTLVTVSA
VL: DIVMTQTTASLSTSVGETVTITCRASGNLHSYLTWYQQKQGKSPQLLVYNAKTLADGVPSRFSGSGSGTQYSLKIDSLQPEDFGSYYCQHFWTTPFTFGSGTKLEIK
notes: also called clone 12B1; source: mouse hybridoma (custom generated by Genscript), serum-free supernatant, purified (rProtein A GraviTrap)
B2: anti-CD30 mAb 15B8 (antibody, V domains shown)
VH: QVQLEQSGTELVKPGASVKLSCKASGYTFTSYWMHWVKQRPGQGLEWIGNINPSNGGTNYNEKFKSKATLTVDKSSSTAYMQLSSLTSEDSAIYYCARRNNYYASSPFAYWGQGTLVSVSA
VL: DIVMTQTPASLSASVGETVTITCRASGNIHNYLAWYQQKQGKSPQLLVYNAKTLADGVPSRFSGSGSGTQYSLKINSLQPEDFGSYYCQHFWSTPFTFGSGTKLEIK
notes: also called clone 15B8; source: mouse hybridoma (custom generated by Genscript), serum-free supernatant, purified (rProtein A GraviTrap)
B3: anti-CD30 mAb 13H1 (antibody, V domains shown)
VH: QVQLQQSGTELVKPGASVKLSCKASGHTFTSYWMHWVKQRPGQGLEWIGNINPSNGGTNYNEKFKSKATLTVDKSSSTAYMQLSSLTSEDSAVYYCARRGYYGSSSYWSFDVWGTGTTVTVSS
VL: DIVMTQTPKSMSMSVGERVTLSCKASENVGTYVSWYQQKPEQSPKVLIYGASNRFTGVPDRFTGSGSATDFTLTISSVQTEDLADYHCGQSYSYPLTFGAGTKLELK
notes: also called clone 13H1; source: mouse hybridoma (custom generated by Genscript), serum-free supernatant, purified (rProtein A GraviTrap)
B4: anti-CD30 mAb 10C2 (antibody, V domains shown)
VH: QVQLEQSGPVLVKPGASVKMSCKASGYTFTDYYMNWVKQSHGKSLEWIGVINPYNGGTSYNQKFKGKATLTVDKSSSTACMELNCLTSEDSAVYYCTLGAYWGQGTSVTVSS
VL: not shown
notes: also called clone 10C2; source: mouse hybridoma (custom generated by Genscript), serum-free supernatant, purified (rProtein A GraviTrap)
B5: anti-CD30 mAb 8D10 (antibody, V domains shown)
VH: QVQLQESGTELVKPGASVKLSCKASGYTFTSYWMHWMKQRPGQGLEWIGNINPSNGGTNYNEKFKNKATLTVDKSSSTAYMQLSSLTSEDSAVYYCARRDYYYGSSYGFDVWGTGTTVTVSS
VL: DIVMTQSPASQSASLGESVTITCLASQTIGTWLAWYQQKPGKSPQFLIYAATSLADGVPSRFSGSGSGTKFSFKISSLQAEDFVSYYCQQLYSTPFTFGGGTKLEIK
notes: also called clone 8D10; source: mouse hybridoma (custom generated by Genscript), serum-free supernatant, purified (rProtein A GraviTrap)
B6: anti-CD30 mAb 10C2 (antibody, V domains shown)
VH: QVQLEQSGPVLVKPGASVKMSCKASGYTFTDYYMNWVKQSHGKSLEWIGVINPYNGGTSYNQKFKGKATLTVDKSSSTACMELNCLTSEDSAVYYCTLGAYWGQGTSVTVSS
VL: not shown
notes: IgG2a constant part; kappa light chain; source: mouse hybridoma supernatant (serum-free medium), purified on rProtein A GraviTrap column
B7: anti-CD30 mAb 8D10 (antibody, V domains shown)
VH: QVQLQESGTELVKPGASVKLSCKASGYTFTSYWMHWMKQRPGQGLEWIGNINPSNGGTNYNEKFKNKATLTVDKSSSTAYMQLSSLTSEDSAVYYCARRDYYYGSSYGFDVWGTGTTVTVSS
VL: DIVMTQSPASQSASLGESVTITCLASQTIGTWLAWYQQKPGKSPQFLIYAATSLADGVPSRFSGSGSGTKFSFKISSLQAEDFVSYYCQQLYSTPFTFGGGTKLEIK
notes: as for B6

T2 sequence (P28908 19-385): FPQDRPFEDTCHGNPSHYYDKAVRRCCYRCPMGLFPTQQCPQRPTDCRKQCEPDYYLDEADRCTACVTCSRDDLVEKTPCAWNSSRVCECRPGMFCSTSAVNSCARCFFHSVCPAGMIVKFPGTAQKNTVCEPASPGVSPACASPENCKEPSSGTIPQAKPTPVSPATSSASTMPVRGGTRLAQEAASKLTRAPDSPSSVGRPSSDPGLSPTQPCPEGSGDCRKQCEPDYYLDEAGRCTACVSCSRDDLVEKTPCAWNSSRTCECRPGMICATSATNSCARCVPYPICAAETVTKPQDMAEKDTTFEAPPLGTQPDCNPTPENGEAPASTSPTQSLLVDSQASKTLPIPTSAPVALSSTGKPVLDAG
T1 sequence (P28908 19-385): as above

The first assay has as its target T1, recombinant huCD30 (R&D) (Homo sapiens, UniProt P28908).
T1 construct: recombinant human CD30 from R&D; also called rhCD30; huCD30 protein; source: bought: R&D
The experiment in a line: SPR; BIAcore 3000, 25°C; recombinant huCD30 amine-coupled on a CM5 chip; mAbs as analyte in serial 1:2 dilutions from 20 nM; 10 mM Hepes pH 7.4, 150 mM NaCl, 0.005% P20, 0.1% BSA; 1:1 Langmuir fit. The conditions noted are these: both partners purified. Background: SPR reads the build-up and loss of mass on a sensor chip optically.
On to B1, for which the Ka is 5.02e+09 M⁻¹, the Kd worked out at 0.199 nM, the koff amounted to 1.22e-05 s⁻¹ and the kon was determined as 61300 M⁻¹ s⁻¹.
On to B2, for which the Ka stood at 1.02e+09 M⁻¹, the Kd was 0.978 nM, the koff was found to be 0.000493 s⁻¹ and the kon worked out at 504000 M⁻¹ s⁻¹.
For B3, the Ka amounted to 6.7e+09 M⁻¹, the Kd is 0.149 nM, the off-rate (koff) was found to be 0.000106 s⁻¹ and the kon was 708000 M⁻¹ s⁻¹.
For B4, the Ka amounted to 1.65e+09 M⁻¹, the Kd came out at 0.607 nM, the koff was 0.000186 s⁻¹ and the kon was determined as 307000 M⁻¹ s⁻¹.
For B5, in that order: 1.69e+10 M⁻¹, 0.0592 nM, 6e-06 s⁻¹ and 101000 M⁻¹ s⁻¹.

Another assay has as its target T2, Recombinant huCD30 (Homo sapiens, UniProt P28908).
T2 construct: human CD30 (TNFRSF8), recombinant protein from R&D; also called rhCD30; huCD30 protein; source: bought: R&D
The experiment in a line: SPR; mAbs (5 ng/ul) immobilized on a Protein G sensor chip at about 200 RU; rhCD30 as analyte (0-2500 nM for the 8D10 and 10C2 flow cells), 2 min at 40 ul/min, 3 min dissociation; 25°C; 10 mM Hepes pH 7.4, 150 mM NaCl, 0.005% P20; BIAcore 3000; 1:1 Langmuir fit. Conditions: both partners purified.
In the case of B6, the Ka was determined as 579000 M⁻¹, the Kd came to 1760 nM, the koff was 0.0101 s⁻¹ and the kon came out at 5880 M⁻¹ s⁻¹.
For the molecule B7, the Ka turned out to be 878000 M⁻¹, the Kd stood at 1140 nM, the koff was 0.00523 s⁻¹ and the kon turned out to be 4530 M⁻¹ s⁻¹.

In general, Kd refers to the equilibrium constant for the complex coming apart. The koff is a measure of how fast the partners let go of each other. By kon is commonly meant the second-order rate constant of association.
